Values of other authors in paper PMC4737190.
“And” between values parts separate entries of the source, which are not always exact repeats. Equal entries are not always repeated.

Molecular target: linear (Met1-linked) di-ubiquitin (Homo sapiens) (UniProt P0CG47)

NEMO UBAN, sequence (Q9Y6K9 242-350): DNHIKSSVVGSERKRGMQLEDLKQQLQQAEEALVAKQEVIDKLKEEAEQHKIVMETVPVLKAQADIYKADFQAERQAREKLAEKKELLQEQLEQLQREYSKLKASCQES

Which Kd does the source give for NEMO UBAN (from UniProt Q9Y6K9) here?
The Kd was 1.6 µM and 3.7 µM.
